Test results published in the domain aggregation screens of Martell et al. (2025).

test: soluble fraction after stress (log2 fold change); higher = more stays soluble; pooled small domains, quantitative proteomics; conditions: stress: 50 degC
Summary of the method: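 The measure of aggregation propensity here is the base-two logarithm of the fold change in the soluble amount of each protein after stress. A higher value means more of that protein stays in solution. Stress was applied at 50°C to pooled libraries of small protein domains, read out by high-throughput quantitative proteomics.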

Compared with “HMLEINTIIGNNLKKIRQEKKLTLDELAGITGVSKGMLSQIEKGTTNPTINTIWKISNGLNVPYTYLLEDD”, “HMRIAGIDIPDNKRGEVALTYIFGIGRSSSKKILKSAGIDSDKQIGKWTDDESNLVRKLIRDEYTIEGDL” is lower in “soluble fraction (log2)” value: 0.183 for the first, -0.412 for the second.

Going from “HMKEVKAPMPGMVLRVEVAPGQEVQEGDPLLVLEAMKMENNLKSPASGTIKSVHVEAGKAVEKGAVLVVF” to “HMSSVHTMEVKSTTQIKVLDENKNLSSYYSMKNPVSFNYRLFFLNQDELKKLQEDLKTNNDIQSIDIKYA”, the “soluble fraction (log2)” value falls from -0.0671 to -0.753.

Going from “HMITASNYFIEVERIGIETLPETLKKGHDLVVKSTSNGTNWANYQTSEGIKKVIDLYFQKLNEYANTV” to “HMKEIKAPNKINAHLIEEWRSQHPTELFPEEKVDLIYYKGEEYYFVIEEKNELGEIEEWYFAYDGGIDYV”, the “soluble fraction (log2)” value rises from -0.749 to 0.106.

“HMGVPELHKGEIVQAVVEKVLGEGLLRVNLKGMTVEAATSLRLNPGQQLLLRSEGIENGRQVLR” and “HMFKINNIIVSGLSEKSNLQTSEEIKNILFENIFFIKKDVLFKILEKNNLINSFEIKKIYPDTIEVKIKKT” are within 0.2 log units of each other in “soluble fraction (log2)” value: 0.00868 for the first, 0.153 for the second.

Compared with “HMEYKTGIINTNKVRVRNAADADATVIFAINKDIKVKILAEENGFYKIGVSVKNRGNGEDLIGFVKKELIT”, “HMQISDVSLIAKVIDDVIDNNVKSVSDYLEGNLNVLRFLVGQVMKETKGKANPQKATELLQEKLESLNN” is higher in “soluble fraction (log2)” value: -0.631 for the first, -0.429 for the second.

“HMETLKEMDSKGAINASEVNVREGAGTSSSKMYSLSKGASVDVTGIKGDWYRVHTSKGTGYVLAKYVTLVS” and “HMTNEQLSKAKSWVQIAVYAAEKLYGAGNGDQKLVYAEEILRKHGIRLDTATLKAMIDAQIKEMEN” are within 0.2 log units of each other in “soluble fraction (log2)” value: -0.0779 for the first, -0.149 for the second.

First: HMPMDYFELFNIPRNANRETIKKILDQEYEKYRARVVSPVLEIRHEAELMLVEISKAKQVLLG
Second: HMNILDPTVMKNILDKNHEEFIAIYESAPLGQKTIINSMVFDKRLNGENVDANILMYLQNKTNIDYINIEP
The “soluble fraction (log2)” value of the first is higher: 0.111 for the first, -0.167 for the second.

“HMHGEAVVVPNVKGLPMRQAENEIYKQSLKAVAIDSSYVKGMPPGAILEQNPAGGSKVKKGRTVYLTINMD” and “HMNRIGERIKRKRELRNLNLGELAEKVGISASALSQIEKSKSFPSVITLKSIAEQLRTTVGELIGEN” are within 0.2 log units of each other in “soluble fraction (log2)” value: -0.0918 for the first, 0.0607 for the second.

First: HMATRAEQMAKTHQAILDTARELFLRNGYDATSTRDIANAIGITQPALYHHFKDKEVIFLAVI
Second: HMSLEDMILSLSSRIRRGESLHFRELLVAIETKSGMVTIFMAVLELLKQQVMEMRYEDDDIIFT
The “soluble fraction (log2)” value of the first is higher: -0.172 for the first, -0.912 for the second.

Compared with “HMGWVMLVIMSRGASEAQINAVVEKIRAAGLTEHLSKGIERTIIGAIGEERKLEPEVFELLPGVEQALHIV”, “HMNYNEKGEYTRTLTSGSETAVMTYRNFGETLDVALFKNGVQTDSLRLIKSEPGVLYRQSNGQFEKI” is higher in “soluble fraction (log2)” value: -0.342 for the first, 0.0586 for the second.

Going from “HMLHNEFINDRIQSAINNLSEHFKIVIILRDIQELSYEEISNIVEVPLGTIKSRINRARIQLQAELLDL” to “HMSSDLLGVRVRRARARAGLTRRRLSLLSGVSERFLAQLESGQGNISIVLIRRVAAALGAELVELIGS”, the “soluble fraction (log2)” value falls from 0.269 to -0.74.

Compared with “HMMESLGIRLKRLRKDKGLTQVELGKLSGVTGVTIGYWEKDLNEPGSKALSKLAQALGTTESYLLYGVS”, “HMYPDNSGDIQQLAQNIFRQENVSVDRDGLALISSRLGSDHAATRSEIEKLALLAGPGGTLTFETISEVLG” is higher in “soluble fraction (log2)” value: -0.634 for the first, -0.144 for the second.

Compared with “HMETWKLYKRAYKKYYARYMKGNMSEADFKAWATQAAADRDAAIEQITPEIDAALKAQIIEQLREKLNR”, “HMIVEIVPSALHGERVDRIVAFILDVSRSVASGLVERGAVHVDGSVETSGKVRLVEGQEVSVDPSQVPG” is higher in “soluble fraction (log2)” value: -0.856 for the first, -0.46 for the second.

First: HMSDEAGKVLQLLRENGGYLPYNDRSDPEDIYAFFSMSKKTFKMTAGNLYKQKKIIFTNTGIKLTE
Second: HMEVSLEDKMDYLTNYATTHKNFSFRNLLESSSGKIEVIVTFLAILELMKMGRINISQEHIFDDIIIESRI
The “soluble fraction (log2)” value of the first is higher: -0.856 for the first, -2.53 for the second.

Compared with “HMDTLRPLGRYQNVHLTKQELTALQSEFSDWSERIERLSSYMASTGRKYQNHAATIRLWAEKDK”, “HMTNPPITTEARNLVVEQLKELNALHPEKARELADSYKKEFNVPKVIGHITEARHGEFLALAISKIDES” is lower in “soluble fraction (log2)” value: 0.13 for the first, -0.144 for the second.

Compared with “HMGMGIGQIIKEKRTALKMTQNELAERLGVSQQSVTGWENNAAVPRESAVRGMMDIFGLSRNELFGEP”, “HMWKQISSEAELLPAVRSVIQANPGEAEKLRNGEMAPLEFLTGLVMKKTNGMAVPQIVKTLIKKELKI” is lower in “soluble fraction (log2)” value: 0.331 for the first, 0.00479 for the second.

“HMGTRYVEFVIPGTGNHEVRIVSSNGSRQNVEVAGTYPGGARLRTKVDNGVRRVSFYVDNRLVEEKQ” and “HMPLTAASLQTYLRGVDYPASKQDLIAHARKSDAPEDAITVLEQYSEQTYRSAADVSAEFGS” are within 0.2 log units of each other in “soluble fraction (log2)” value: 0.0416 for the first, 0.178 for the second.

First: HMRDKTMLGNVIRTRRKKMNLTLEELSKQVGITSGGLSQIERGLVDPSLSVLRRISRALNLPMNVMFSE
Second: HMSIGKEATPDDIVPNIRVYHATFGYGNVIKTDGVSHDKKAVVNFDSVGEKTLLLKFAKLILPY
The “soluble fraction (log2)” value of the first is lower: -0.281 for the first, 0.138 for the second.

Going from “HMETLGADLRALRKSRGLTLLDMAESLGRSVGWLSQVERDLSDPSISDLREIAELLGVPISMLFRH” to “HMTGDNQTIGGGGFHHVAIRAHDFDASVKFYGETLGFREKIAWGEGDKRAIMMDTGDGNYIEIF”, the “soluble fraction (log2)” value rises from -2.86 to 0.197.

Compared with “HMENISVESKMKLLLKSLKTRDFISLPELVLKGESKLAISVILVAALELNRKGYIEVVQAEQFGEIYFKNT”, “HMQGDHELSQRILSYLSEQGGSSPLTDKASPEEIYRIFRVSKKKYKQALGNLYKSKSIIILADKIQLL” is lower in “soluble fraction (log2)” value: -0.191 for the first, -0.736 for the second.

First: HMSEYTRGELVSSLEAGEVAAVSIRPNRETPTGEAQIVLSDGQHRVLYVTDVREIEELVSSYGLNPQVEK
Second: HMRKVVLEEKEANYYAEPNSESELLGVLKRGIHLTVTDVKKEAGSDGWVKLVHPDGQEGWISGRARIRV
The “soluble fraction (log2)” value of the first is higher: 0.233 for the first, -0.0551 for the second.

“HMVQIQDIAFSEFLNELEKGNILDVNIKGDLINGNMLDGKKFKTYAPYDPSLVEKLSKQNVTINVEPVN” and “HMEYSTLEIYSQTKKDLIEKSPHLNKVVYDKDDGYIYLLSFEKEDDLTSFKSNIENDSDIKRIEANV” are within 0.2 log units of each other in “soluble fraction (log2)” value: 0.0938 for the first, 0.0917 for the second.

Going from “HMDFITPYEIEQGQYEGAELYEDGKFEEAFSLSSIAAQRGMKTAQYLLGIMFLKGEYVDQSLAIGMAW” to “HMDLIFQKGDLVFSTEHNQRGIFYEYLEQGQAKISIEKQFFVVAARRLQLLTKREVLYPAGYDLDQLFV”, the “soluble fraction (log2)” value rises from -0.272 to -0.0465.

Compared with “HMTTMTTGQRIAAKRKEQGLSQENLGEQLGVSRQAIYKWESDASLPDIDKLIALSRLFGVSTDYLLLE”, “HMSVIKERLTEFLTYKGIGQIKFAEAAGLSRGFVNVLGDGISSKSLNKISQAFPELNTLWLTTGEGEML” is lower in “soluble fraction (log2)” value: -0.41 for the first, -1.91 for the second.

First: HMDTVSYSTLLRDIDAKEIKQLDLVPGRREVRVQYNDGRRVTVPVFANDNQILRAAESSGTPLTVV
Second: HMIINKFERRKEIQIQFNNQERIKFKDFFLNLSKENIIVSFLILLELVRESLIDFSGTNENDIEFFIK
The “soluble fraction (log2)” value of the first is higher: 0.183 for the first, -2.3 for the second.

Going from “HMYSDERLQTFMELLPFFVEELSNKHVTRYNVWQNYREAYPNGYGRSQFFFHLGQNLEAKKK” to “HMKPFSLESYKAFVVKRLGLFPETSSAQMHDWLKEEYPDFPLITPRTVYNFVMKIRQDYGIAKV”, the “soluble fraction (log2)” value falls from -1.17 to -3.66.

Compared with “HMSSNLSLHKEGNKIVILGLEGKSVIEVYDLMGRLLSSQTNYNPKQEITLLQPVIIRVTDTQQTKSFKV”, “HMQDREIHIHAGREVLEKELSRLSLHLKNTNLQEYAARFNVKTAEDILAGIGAGDIRPAHVVNLIADKL” is higher in “soluble fraction (log2)” value: -0.83 for the first, 0.0629 for the second.

“HMSSEQRSVLFPNLAETDKVAVIEALMAAGVNARVDSASGRVTVPSGDYYNSRAILAAQGLPTS” and “HMTLTIEDGYVNAKLKTTVEGLAEDSTIKVDSIEYTNAGKNDILTVFVEDKPYRVEKYKINIAPEDS” are within 0.2 log units of each other in “soluble fraction (log2)” value: 0.0696 for the first, 0.0185 for the second.

“HMDDIHTFVYETETPFDPQKLDRYIGSLTAVYGQDMLRYKGILYFAGVDRRVVFQGVHMLAV” and “HMIQTKKVTFTVEPTVNFEKINISGIEFKINSGSSITAIYEKNSHNFDEVLDFLKQKGVKILDIVTED” are within 0.2 log units of each other in “soluble fraction (log2)” value: -0.0916 for the first, -0.118 for the second.

“HMGSATAPDLKGLTYEQAQTKAEDAGYNIEKGEDVYDNDVEKGKVASQDPEAGAEAKEGSVITVNISK” and “HMANPFQELTERELDVLRQVAAGKNNREIAEALFIGEKTVKTHISNILSKLHLADRTQAAVYAWQQGMM” are within 0.2 log units of each other in “soluble fraction (log2)” value: -0.0349 for the first, -0.0277 for the second.

Going from “HMDYTGIPQSLLDLMKKDNIMPMQIQRAVAERNYYPVDTPISNYDPMFIEAKLVGAWDQVLNVISHLDLP” to “HMGAVQFAEQKIHIGSRWIGKKISEFSAESDAFVILIKRGSEVVIPRGPTDIVENDVLVIHVPD”, the “soluble fraction (log2)” value falls from -0.649 to -2.56.

“HMTQHDIVPLMLKMVDVLTQFVELDIPFLQQERQTRLAALNAMMGRADVSLAEKYRRIMEAYQVETEYG” and “HMERLKRVTLSLNQSNYSVTEIARRLQAITGIKDITVVEDEQAVYLKVDPATFDLTLAQQAV” are within 0.2 log units of each other in “soluble fraction (log2)” value: -0.0938 for the first, -0.218 for the second.

First: HMFISVDGLIHMGRTHLVILGGVEFARGDMIPETGEVVKSIGADSVVLELPDTGMRRTLNFV
Second: HMNPLPALLRYFRQKAGLTQQDVAAALSISRSGYANYEEGRNIPNIEQAIKLSELLNHDFLYAYTLSS
The “soluble fraction (log2)” value of the first is lower: -2.92 for the first, -1.99 for the second.

Going from “HMLDIPEVGQAVQVRGRLGTVFSVAPYDGREGRLHLVTVDYLDDARPPENDEILWEIESGARILG” to “HMGNLASGAYEQIKRRILSLEYLPGSILQERGLAEELGISRTPVREAIHRLSQEGWLKINSRKNIRVR”, the “soluble fraction (log2)” value falls from -0.523 to -1.98.

“HMGKKGPELSENEKSIFSILSKSGSMDLTTLKEASGLSNKQWDKGIKGLGKHGLTKVIKTEDALLVEVV” and “HMVDFVNVVVPVKANYGGEAVVEFLDERLSEFGTEGIYRIELQGETMENPSPDYSQLKAKYHISEIVDRT” are within 0.2 log units of each other in “soluble fraction (log2)” value: 0.0505 for the first, 0.08 for the second.

First: HMGSFTDKQIKQAFGVLNDPRFKQGNYDGAVAVINKIAPGLADHPSVANALKRANEATQDIAQQTQA
Second: HMSHQIIIVAVELDPSTERIVYYLSKNGISINVLFFKVFQHGDEQFLSRVWLIDPSETQTNAALA
The “soluble fraction (log2)” value of the first is higher: 0.161 for the first, -0.466 for the second.

Compared with “HMDTQKYDLNDDGRFDVQDVTYLQIKIAGDGELTDNQKKIADYNNDGKIDVQDVTSAQMLIS”, “HMSKQKRIKYFLSILNIKSIKQFRKKDLDYFYQKRFIEIQKSSKDKKLVSNQLIELNAAKEYLDEIDFEN” is lower in “soluble fraction (log2)” value: -0.0732 for the first, -1.93 for the second.

In the case of “HMSDIIVQGNRRLDTDLIITDSQIREIGTDEKSLSLAVKNLYKTGYFENVQIFKDNSVVFINVKENQ”, the “soluble fraction (log2)” value is reported as -0.103.
